FireProtDB (doi:10.1016/j.ijbiomac.2008.12.016)
Several values for one entry are separate records, joined by “and”; a condition that tells them apart may be missing. Identical values can stand only once.

Conditions: Oryctolagus cuniculus, pH 8, CD, Tris_HCl 10 mM; for unfolding free energy / denaturant midpoint (higher = more stable): 25 °C, GdnHCl, reversible: Yes; for unfolding free energy: transition: 3; for Tm / change of melting temperature, mutant - wild type (higher = more stable): Thermal, reversible: No

Creatine kinase M-type D122A, P00563, sequence (P00563 whole entry D122A): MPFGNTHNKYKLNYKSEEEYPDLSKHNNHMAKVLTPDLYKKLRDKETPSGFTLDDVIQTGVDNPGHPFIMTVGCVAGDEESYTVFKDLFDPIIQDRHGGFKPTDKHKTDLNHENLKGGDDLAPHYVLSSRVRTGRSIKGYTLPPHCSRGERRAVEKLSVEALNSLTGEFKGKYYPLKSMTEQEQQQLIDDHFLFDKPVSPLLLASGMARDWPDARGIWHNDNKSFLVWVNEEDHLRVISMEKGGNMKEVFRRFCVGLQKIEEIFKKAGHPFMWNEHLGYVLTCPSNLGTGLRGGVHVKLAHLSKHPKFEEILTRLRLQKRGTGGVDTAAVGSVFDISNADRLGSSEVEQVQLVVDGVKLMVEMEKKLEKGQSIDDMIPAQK
Creatine kinase M-type D122N, P00563, sequence (P00563 whole entry D122N): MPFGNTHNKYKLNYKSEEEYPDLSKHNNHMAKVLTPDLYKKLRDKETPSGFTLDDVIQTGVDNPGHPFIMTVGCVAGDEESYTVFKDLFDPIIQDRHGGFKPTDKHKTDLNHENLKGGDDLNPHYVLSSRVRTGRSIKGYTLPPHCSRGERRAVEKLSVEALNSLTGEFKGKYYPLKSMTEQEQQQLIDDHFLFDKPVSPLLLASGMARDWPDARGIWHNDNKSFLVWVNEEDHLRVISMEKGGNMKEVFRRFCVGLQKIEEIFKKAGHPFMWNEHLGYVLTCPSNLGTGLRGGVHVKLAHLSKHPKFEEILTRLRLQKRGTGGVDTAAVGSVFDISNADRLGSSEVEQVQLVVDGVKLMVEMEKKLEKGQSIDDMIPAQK
Creatine kinase M-type wild type, P00563, sequence (P00563 whole entry): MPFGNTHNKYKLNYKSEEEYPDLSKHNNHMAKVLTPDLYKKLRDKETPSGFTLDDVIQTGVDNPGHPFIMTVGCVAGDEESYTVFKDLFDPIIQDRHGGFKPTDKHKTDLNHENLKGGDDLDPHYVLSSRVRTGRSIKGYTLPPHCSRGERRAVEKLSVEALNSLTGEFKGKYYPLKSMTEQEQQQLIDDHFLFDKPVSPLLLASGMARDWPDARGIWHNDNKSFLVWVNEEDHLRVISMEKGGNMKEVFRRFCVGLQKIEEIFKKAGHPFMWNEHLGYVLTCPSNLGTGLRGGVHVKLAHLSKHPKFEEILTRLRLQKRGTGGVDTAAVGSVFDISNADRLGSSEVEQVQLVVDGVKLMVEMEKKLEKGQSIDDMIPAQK

| Substance | unfolding free energy | Tm [°C] | denaturant midpoint (higher = more stable) (structure 2CRK) [M] | unfolding free energy (structure 2CRK) | Tm (structure 2CRK) [°C] | change of melting temperature, mutant - wild type (higher = more stable) (structure 2CRK) [°C] |
| --- | --- | --- | --- | --- | --- | --- |
| Creatine kinase M-type wild type, P00563 | 3.59 kcal/mol and 4.06 kcal/mol | 59.1 | – | – | – | – |
| Creatine kinase M-type D122N, P00563 | – | – | 0.29 | 3.59 kcal/mol and 2.87 kcal/mol | 61.2 | 2.1 |
| Creatine kinase M-type D122A, P00563 | – | – | 0.24 | 3.59 kcal/mol | 59.1 | 0 |
